Experimental data from US20260028403A1 (Zymeworks, published 2026).

B1: v37634 (trispecific antibody, human IgG1, lambda, L234A L235A)
heavy 1: not shown
heavy 2: QVQLVESGGGLVQPGGSLRLSCSVSGIDLSSNPMIWVRQAPGKGLQYIGIIDTDGSTYYADWAKGRFTISKDSTTVYLQINSPRAEDTAVYYCARRLHGSSNGYYDDLWGQGTLVTVSSGGGGSGGGGSGGGGSGGGGSDGQMTQSPSSVSASVGDRVTITCQASQSIYSYLSWYQQKPGQRPKLLIYKASTLASGVPSRFSGSGSGTDFTLTISSVQPEDFATYYCQQGYTVTNVDKNTFGGGTKVEIKAAEPKSSDKTHTCPPCPAPEAAGGPSVFLFPPKPKDTLMISRTPEVTCVVVSVSHEDPEVKFNWYVDGVEVHNAKTKPREEQYNSTYRVVSVLTVLHQDWLNGKEYKCKVSNKALPAPIEKTISKAKGQPREPQVYVLPPSRDELTKNQVSLLCLVKGFYPSDIAVEWESNGQPENNYLTWPPVLDSDGSFFLYSKLTVDKSRWQQGNVFSCSVMHEALHNHYTQKSLSLSPG
light: NFMLTQPHSVSESPGKTVTISCKRNTGNIGSNYVNWYQQHEGSSPTTIIYRNDKRPDGVSDRFSGSIDRSSKSASLTISNLKTEDEADYFCQSYSSGFIFGGGTKLTVLGQPKAAPSVTLFPPSSEELQANKATLVCLISDFYPGAVTVAWKADSSPVKAGVETTTPSKQSNNKYAASSYLSLTPEQWKSHRSYSCQVTHEGSTVEKTVAPTECSGGGGSGDIQMTQSPSSLSASVGDRVTITCRASESVEYYVTSLMQWYQQKPGKAPKLLIYAASNVDSGVPSRFSGSGSGTDFTLTISSLQPEDIATYYCQQSRKVPFTFGGGTKVEIKGGGGSGGGGSGGGGSGGGGSQVQLQESGPGLVKPSETLSLTCAVSGFSLTSYGVHWIRQPPGKGLEWLGVIWPGGGTNFNSALMSRLTISEDTSKNQVSLKLSSVTAADTAVYYCARDRAYGNYLYAMDYWGQGTLVTVSS
notes: CD28 scFv on C-terminus of the CD3 Fab light chain; Het Fc, FcKO; also called CD3xCD28xCldn18.2 trispecific
B2: v37411 (antibody, human IgG1, V domains shown)
VH: QVQLVESGGGLVQPGGSLRLSCSVSGIDLSSNPMIWVRQAPGKGLQYIGIIDTDGSTYYADWAKGRFTISKDSTTVYLQINSPRAEDTAVYYCARRLHGSSNGYYDDLWGQGTLVTVSS
VL: DGQMTQSPSSVSASVGDRVTITCQASQSIYSYLSWYQQKPGQRPKLLIYKASTLASGVPSRFSGSGSGTDFTLTISSVQPEDFATYYCQQGYTVTNVDKNTFGGGTKVEIK
notes: human IgG1-based monoclonal antibody; also called H5-L4; anti-CLDN18.2 mAb
B3: v37642 (trispecific antibody, human IgG1, kappa, L234A L235A)
heavy 1: not shown
heavy 2: EVQLVESGGGLVQPGGSLRLSCAASGVTFNYYGMSWIRQAPGKGLEWVASITSSGGRIYYPDSVKGRFTISRENTQKTLYLQMNSLRAEDTAVYYCTLDGRDGWVAYWGQGTLVTVSSGGGGSGGGGSGGGGSGGGGSNFMLTQPHSVSESPGKTVTISCKRNTGNIGSNYVNWYQQHEGSSPTTIIYRNDKRPDGVSDRFSGSIDRSSKSASLTISNLKTEDEADYFCQSYSSGFIFGGGTKLTVLAAEPKSSDKTHTCPPCPAPEAAGGPSVFLFPPKPKDTLMISRTPEVTCVVVSVSHEDPEVKFNWYVDGVEVHNAKTKPREEQYNSTYRVVSVLTVLHQDWLNGKEYKCKVSNKALPAPIEKTISKAKGQPREPQVYVLPPSRDELTKNQVSLLCLVKGFYPSDIAVEWESNGQPENNYLTWPPVLDSDGSFFLYSKLTVDKSRWQQGNVFSCSVMHEALHNHYTQKSLSLSPG
light: DIQMTQSPSSLSASVGDRVTITCRASESVEYYVTSLMQWYQQKPGKAPKLLIYAASNVDSGVPSRFSGSGSGTDFTLTISSLQPEDIATYYCQQSRKVPFTFGGGTKVEIKRTVAAPSVFIFPPSDEQLKSGTASVVCLLNNFYPREAKVQWKVDNALQSGNSQESVTEQDSKDSTYSLSSTLTLSKADYEKHKVYACEVTHQGLSSPVTKSFNRGEC
notes: also called Cldn18.2xCD28xCD3 trispecific
B4: v38991 (trispecific antibody, human IgG1, kappa, L234A L235A)
heavy 1: not shown
heavy 2: B3 heavy 2
light: B3 light
notes: also called v37642 format, CD28 VH N1111aA
B5: v38993 (trispecific antibody, human IgG1, kappa, L234A L235A)
heavy 1: not shown
heavy 2: B3 heavy 2
light: B3 light
notes: also called v37642 format, CD28 VH L1112aN
B6: v38990 (trispecific antibody, human IgG1, kappa, L234A L235A)
heavy 1: not shown
heavy 2: B3 heavy 2
light: B3 light
notes: also called v37642 format, CD28 VH Y1113S
B7: v38992 (trispecific antibody, human IgG1, kappa, L234A L235A)
heavy 1: not shown
heavy 2: B3 heavy 2
light: B3 light
notes: also called v37642 format, CD28 VH G1064S

Key:
Human CLDN18.2 [1] = molecular target: T1, Human CLDN18.2 (human); assay: flow cytometry, SNU 601 cells
T1 construct: on transfected HEK293-6E cells or native on SNU 601 cells
Protocol: To determine the impact of the trispecific construct format on the construct's ability to binding CLDN18.2, the binding affinity to CLDN18.2 was measured for certain constructs using flow cytometry as described below.
To that end, cells (>80% viability) were resuspended to 1×10⁶ cells/mL in FACS buffer (PBS+2% FBS; Gibco) and seeded in a 96 well v-bottom plate (Sarstedt). Cells were mixed with antibody dilutions and incubated at 4° C. for one hour. Following incubation, cells were washed twice by adding 150 mL FACS buffer and centrifuging for 400×g for 3 minutes. […] Cells were washed twice by adding 150 mL FACS buffer and centrifuging for 400×g for 3 minutes. Cells were resuspended in FACS buffer and acquired on the BD LSRFortessa Cell Analyzer.

[2] = molecular target: T2, Recombinant human CD3 epsilon/delta heterodimer, his tag protein (Acro Biosystems) (human, UniProt P07766 23-126; P04234 22-105); assay: SPR Biacore T200, CD3 e/d-his on CM5, construct injected, 1:1 model;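 note: measured at 25 °C in HEPES-buffered saline with EDTA and Tween 20 at pH 7.4, values are means of three independent runs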
T2 construct: bought

[3] = molecular target: T3, Recombinant human/Cynomolgus/Rhesus macaque CD28 Protein, His Tag (Acro Biosystems) (human/cynomolgus/rhesus macaque, UniProt P10747 19-152); assay: SPR, v37634 captured on anti-human IgG Fc on CM5, CD28-his tag flowed
T3 construct: used only for v37634; also called CD28-his tag

Cynomolgus monkey CLDN18 = molecular target: T4, Cynomolgus monkey CLDN18 (cynomolgus monkey); assay: flow cytometry, HEK293-6E + cyno CLDN18, 4PL fit
T4 construct: on transfected HEK293-6E cells; also called Cyno CLDN18; cyno CLDN18.2 ortholog
T4 chain: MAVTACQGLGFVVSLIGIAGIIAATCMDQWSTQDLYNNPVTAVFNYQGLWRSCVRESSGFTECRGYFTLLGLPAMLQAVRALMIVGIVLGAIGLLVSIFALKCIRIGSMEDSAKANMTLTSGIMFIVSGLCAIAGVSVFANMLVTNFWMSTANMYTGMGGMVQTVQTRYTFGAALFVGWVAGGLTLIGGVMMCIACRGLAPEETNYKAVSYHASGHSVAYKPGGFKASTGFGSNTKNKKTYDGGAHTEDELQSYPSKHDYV
Protocol: (§1) The purified rabbit chimeric and humanized constructs were assessed for binding to HEK293-6E cells transfected with human, cynomolgus monkey, or mouse CLDN18.2 orthologs (TABLE 12) by flow cytometry. […] Constructs were also assessed for binding to HEK293-6E cells transfected with human CLDN18.1.

Mouse CLDN18 A2.1 = molecular target: T5, Mouse CLDN18 A2.1 (mouse, UniProt P56857 10-264); assay: flow cytometry, HEK293-6E + mouse CLDN18, 4PL fit
T5 construct: on transfected HEK293-6E cells; also called Mouse CLDN18 2.1; mouse CLDN18.2 ortholog
T5 chain: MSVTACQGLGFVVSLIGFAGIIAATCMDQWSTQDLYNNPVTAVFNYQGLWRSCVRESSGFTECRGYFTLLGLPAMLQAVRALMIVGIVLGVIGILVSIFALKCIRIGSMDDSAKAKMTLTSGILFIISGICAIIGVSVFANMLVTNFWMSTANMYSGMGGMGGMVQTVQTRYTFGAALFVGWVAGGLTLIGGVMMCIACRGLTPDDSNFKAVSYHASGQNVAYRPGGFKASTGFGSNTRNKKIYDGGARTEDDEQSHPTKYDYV
Protocol: as §1

Human CLDN18.2 [4] = molecular target: T1, Human CLDN18.2; assay: flow cytometry, HEK293-6E + human CLDN18.2, 4PL fit
Protocol: as §1

[5] = molecular target: T6, CD28 on primary human T cells (human, UniProt P10747 19-220); assay: cell-based or functional assay
[6] = molecular target: T6, CD28 on primary human T cells; assay: cell-based or functional assay; remark: listed apart in the source
[7] = molecular target: T6, CD28 on primary human T cells; assay: cell-based or functional assay; remark: listed apart in the source
[8] = molecular target: T7, Recombinant human/cynomolgus/rhesus macaque CD28 mouse IgG2a Fc fusion protein (Acro Biosystems) (human/cynomolgus/rhesus macaque, UniProt P10747 19-152); assay: SPR, in-format anti-CD28 variants, huCD28
T7 construct: bought; also called huCD28

[9] = molecular target: T7, Recombinant human/cynomolgus/rhesus …; assay: SPR Biacore T200, CD28-mIgG2a Fc on CM5, construct injected, 1:1 model;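 note: fc fusion captured by amine coupling, run at 25 °C in HEPES buffer pH 7.4, association 140-500 s then dissociation 600-1200 s, values averaged over three independent runs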

Binder | Bmax (Human CLDN18.2 [1]) | EC50 (Human CLDN18.2 [1]) | IFNg mean cytokine, T cells alone, 45 nM construct [5] | IL-2 mean cytokine, T cells alone, 45 nM construct [5] | IFNg EC50, T cells + SNU 601 [6] | IFNg maximum cytokine, T cells + SNU 601 [6] | IL-2 EC50, T cells + SNU 601 [6] | IL-2 maximum cytokine, T cells + SNU 601 [6] | IC50, TDCC on SNU 601-RFP, 1:5 E:T [7] | IC50, TDCC on SNU 601-RFP, 2:1 E:T [7] | Maximum Mean Cytotoxicity (%), 1:5 E:T [7] | Maximum Mean Cytotoxicity (%), 2:1 E:T [7] | Fold-change from WT [8] | Kd [8] | koff [8] | kon [8] | other results
B1 | 6840 MFI | 27.2 nM | – | – | – | – | – | – | – | – | – | – | – | – | – | – | Kd [2]: 77.6 nM; koff [2]: 0.0123 s⁻¹; kon [2]: 163000 M⁻¹ s⁻¹; Kd [3]: 258 nM; koff [3]: 0.00187 s⁻¹; kon [3]: 7230 M⁻¹ s⁻¹
B2 | 11700 MFI | 8.9 nM | – | – | – | – | – | – | – | – | – | – | – | – | – | – | Bmax (Cynomolgus monkey CLDN18): 1730; EC50 (Cynomolgus monkey CLDN18): 0.37 nM; Bmax (Mouse CLDN18 A2.1): 1790; EC50 (Mouse CLDN18 A2.1): 1.03 nM; Bmax (Human CLDN18.2 [4]): 2170; EC50 (Human CLDN18.2 [4]): 1.05 nM
B3 | 9310 MFI | 24.1 nM | 857 pg/mL | 2930 pg/mL | 0.00367 nM | 3040 pg/mL | 0.00267 nM | 5060 pg/mL | 0.0023 nM | 0.000166 nM | 96.9% | 98.7% | 1 fold | 42.3 nM | 0.00286 s⁻¹ | 70400 M⁻¹ s⁻¹ | Kd [2]: 62 nM; koff [2]: 0.0117 s⁻¹; kon [2]: 189000 M⁻¹ s⁻¹; Kd [9]: 20.2 nM; koff [9]: 0.00198 s⁻¹; kon [9]: 98200 M⁻¹ s⁻¹
B4 | – | – | 15.4 pg/mL | 26.5 pg/mL | 0.0909 nM | 6150 pg/mL | 0.0222 nM | 9620 pg/mL | 0.0127 nM | 0.000838 nM | 95.6% | 98.2% | 6.1 fold | 257 nM | 0.0145 s⁻¹ | 62900 M⁻¹ s⁻¹ | –
B5 | – | – | 475 pg/mL | 1520 pg/mL | 0.0793 nM | 4450 pg/mL | 0.0287 nM | 8410 pg/mL | – | – | – | – | 3.4 fold | 144 nM | 0.00817 s⁻¹ | 59000 M⁻¹ s⁻¹ | –
B6 | – | – | 0.9 pg/mL | 1.8 pg/mL | 0.604 nM | 3290 pg/mL | 1.56 nM | 5240 pg/mL | 0.145 nM | 0.00358 nM | 95.4% | 97.8% | 225 fold | 9510 nM | – | – | –
B7 | – | – | 559 pg/mL | 1690 pg/mL | 0.023 nM | 3990 pg/mL | 0.00916 nM | 5560 pg/mL | – | – | – | – | 3.1 fold | 130 nM | 0.00738 s⁻¹ | 59800 M⁻¹ s⁻¹ | –
